Reference: patent US9376706B2, “Protease detection” (Mologic Limited, priority 2007, dated 2016)
Square brackets hold non-standard residues; d marks the D form. Ends that are not written are not given here. ANA = 2-amino naphthoic acid; 4Abz = Nc1ccc(C(=O)O)cc1

Experiments:
Format in all cases: biochemical
Neutrophil Elastase [1] = molecular target: T1, Neutrophil Elastase (Homo sapiens, UniProt P08246); test: Vertical flow column assay, peptide conjugated to frits, elastase, DMAC development; details: column with elastase, flow contact time approx. 30 seconds
T1 sequence (P08246 30-267): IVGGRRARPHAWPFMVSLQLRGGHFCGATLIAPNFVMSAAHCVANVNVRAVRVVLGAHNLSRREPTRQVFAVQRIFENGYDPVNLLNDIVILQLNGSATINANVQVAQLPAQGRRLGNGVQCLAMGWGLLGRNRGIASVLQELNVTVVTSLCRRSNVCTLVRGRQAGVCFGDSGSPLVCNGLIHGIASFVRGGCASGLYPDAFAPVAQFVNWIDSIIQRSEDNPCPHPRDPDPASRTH
Method: Another assay format was used to test for the activity of the enzyme Neutrophil Elastase in the presence of the two peptides, AAPV-[pABA]-GGC (SEQ ID NO: 3) and AAPV-[ANA]-GGC (SEQ ID NO: 4). The C-terminal cysteine group of the peptides was used as a means of conjugation to a solid surface. Sintered polyethylene frits functionalised with iodoacetyl groups were rinsed in 50 mM sodium phosphate, 5 mM EDTA, pH 7.4 for 10 minutes. The frits were then transferred to a solution of 0.5 mg/ml peptide (in PBS) for sensitisation for 30 minutes. The frits were then rinsed once more in phosphate EDTA buffer for 10 minutes. The frits were loaded into empty columns and 200 μl of elastase was added with an approximate flow contact time of 30 seconds. To develop the assay, 100 μl of working DMAC solution (0.3 mg/ml DMAC, 50 mM HCl) was passed through the column.

Neutrophil Elastase [2] = molecular target: T1, Neutrophil Elastase; test: Plate assay of peptides as elastase substrates with DMAC visualisation; details: for result for elastase activity (well colour): 37° C., 30 minutes, pH 7.4; for suitability as elastase substrate: conclusion of Examples 3A and 3B
Method: Two peptides, AAPV-[pABA]-GGC (SEQ ID NO: 3) and AAPV-[ANA]-GGC (SEQ ID NO: 4), were synthesised, wherein pABA is para-amino benzoic acid and ANA is 2-amino naphthoic acid. Both peptides were tested for their suitability as a substrate for the Neutrophil Elastase enzyme. The electrospray mass spectrums of AAPV-[pABA]-GGC (SEQ ID NO: 3) and AAPV-[ANA]-GGC (SEQ ID NO: 4) are shown in FIGS. 10A and 10B respectively.
Varying concentrations of Elastase (5 μl of 18, 9, 6 and 3 units/ml dilutions) were added to 0.5 mg/ml peptide (5 μl) in separate plate wells. The mixtures were diluted with 20 μl of Buffer (50 mM phosphate, 5 mM EDTA; pH 7.4) and incubated at 37° C. for 30 minutes. 15 μl of working DMAC solution (0.3 mg/ml DMAC, 50 mM HCl) was added to each plate well and mixed thoroughly to visualize.

papain = molecular target: T2, papain (Carica papaya, UniProt P00784); test: Booklet assay for detection of papain with DMAC visualisation
T2 sequence (P00784 134-345): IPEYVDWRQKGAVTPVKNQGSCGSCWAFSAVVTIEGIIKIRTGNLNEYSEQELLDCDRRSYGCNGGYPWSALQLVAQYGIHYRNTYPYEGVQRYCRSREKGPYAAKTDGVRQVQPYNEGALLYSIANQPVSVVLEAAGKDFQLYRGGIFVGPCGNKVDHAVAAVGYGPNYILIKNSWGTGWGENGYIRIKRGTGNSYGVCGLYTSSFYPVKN
Source text: The polypeptides of the present invention are, in some embodiments, incorporated into a product for detecting a protease enzyme in a sample which takes the form of a booklet. A suitable such booklet is disclosed in PCT application No. PCT/GB2007/000643 which is incorporated herein by reference. Referring to FIG. 3 a booklet 1 in accordance with this embodiment will now be described. The booklet comprises first and second sheets 2, 3 of planar substrate such as cardboard, connected by a hinge 4. In the centre of the first sheet there is provided a thin reaction film 25 on top of an absorbent pad 5. The reaction film 25 is impregnated with the chromogenic polypeptide and can be made from PVA. On the centre of the second sheet 3 there is provided an aperture 6 which is aligned with the reaction film 25 and the absorbent pad 5. The aperture 6 is covered by a visualisation film 7, such that the visualisation film 7 lies between the aperture 6 and the reaction film 25 when the first and second sheets 2, 3 are pressed against each other. The visualisation film 7 is impregnated with DMAC and HCl. Optionally, the reaction film 25 and the absorbent pad 5 are covered with a removable film (not shown) prior to use so that the reaction film 25 and the absorbent pad 5 are kept sealed from the environment. […]

Substance | result of vertical flow assay (column colour) (Neutrophil Elastase [1]) | result for elastase activity (well colour) (Neutrophil Elastase [2]; all wells with elastase) | suitability as elastase substrate (Neutrophil Elastase [2]) | result for elastase activity (well colour) (Neutrophil Elastase [2]; final elastase 0.5 units/ml) | result for elastase activity (well colour) (Neutrophil Elastase [2]; final elastase 3, 1.5 or 1 units/ml) | colour change of DMAC in booklet assay (papain; papain sample, 5 min on first sheet, read ten minutes after folding onto DMAC sheet) | rate of colour change compared with BANA (papain; papain, identical conditions, FIG. 7C)
AAPV-[ANA]-GGC (AAPV[ANA]GGC) [chromogenic peptide, ANA is 2-amino naphthoic acid] | negative results | elastase activity was not detected | poor elastase substrate | – | – | – | –
AAPV-[pABA]-GGC (AAPV[4Abz]GGC) [chromogenic peptide, pABA is para-amino benzoic acid] | positive result | – | significantly more suitable as a substrate for elastase | weak positive result | positive result | – | –
Val-Arg-[pABA]-Gly (VR[4Abz]G-OH; N-terminus assumed; SMILES CC(C)[C@H](N)C(=O)N[C@@H](CCCNC(=N)N)C(=O)Nc1ccc(C(=O)NCC(=O)O)cc1) [chromogenic polypeptide; pABA is para-amino benzoic acid] | – | – | – | – | – | changed from yellow to red | faster detectable colour change than BANA
